Legend:
cleaved-AREG peptide = target: T1, cleaved-AREG peptide (Homo sapiens, UniProt P15514); assay: ELISA binding of 1A3 and 1A3-VC-PAB-MMAE to cleaved-AREG peptide; conditions: 0.001-1 μg/mL
T1 construct: host or cells: synthetic peptide
Procedure: Maxisorp flat bottom 96-well plates (Thermo Fisher Scientific) were coated with 5 μg/mL cleaved-AREG peptide at 4° C. overnight. After washing thrice with PBST (PBS with 0.05% Tween20) and blocking for 2 h at RT with 5% non-fat dry milk in PBST, various concentrations of 1A3 and 1A3-VC-PAB-MMAE (0.001, 0.01, 0.1, 1 μg/mL) were added to the wells and incubated for 2 h at RT. The wells were washed four times with PBST and were incubated at RT with Goat anti-rabbit IgG (H+L) Cross-adsorbed-HRP conjugate secondary Ab (ThermoFisher G-21234) for 1 h. One-Step™ Turbo™ B-ELISA Substrate Solution (Thermo Fisher Scientific) was added to the wells for color development, incubated for 15 min and the reaction was stopped by adding 2 M H2SO4.

[1] = target: T2, Trunc AREG (fragment that remains cell-bound after cleavage by ADAM17) (Homo sapiens, UniProt P15514); assay: Immunoblot of TRF-conjugated AREG peptides, cleaved mimic; assay type: binding; conditions: 1 μg/mL antibody, 200 ng TRF-conjugated peptide
T2 construct: host or cells: synthetic peptide conjugated to transferrin
Procedure: (§1) Monomethyl auristatin E (MMAE) conjugated 1A3 antibody (1A3-VC-PAB-MMAE) was prepared using a kit (CM11409) from CellMosaic Inc. (Woburn, MA, USA) following the manufacturer's instructions. Maleimide-activated valine-citrulline p-aminobenzylcarbamate (VCPAB) MMAE was coupled directly to the antibody after reduction through alkylation.^13 The specificity of 1A3 and 1A3-VC-PAB-MMAE to peptides representing human cleaved-AREG was confirmed by immunoblotting. Briefly, transferrin (TRF) conjugated peptides representing cleaved and uncleaved AREG (200 ng) were electrophoresed on SDS-PAGE gels, transferred to PVDF membrane and probed with 1 μg/mL of 1A3 and 1A3-VC-PAB-MMAE. Horseradish peroxidase-conjugated goat anti-rabbit IgG was used. Antibody binding was detected with enhanced chemiluminescence (ECL; Amersham, Arlington Heights, IL, USA). Furthermore, the characterization and purity of 1A3-VC-PAB-MMAE were analyzed using hydrophobic interaction chromatography (HIC) and size-exclusion chromatography (Cell Mosaic).

[2] = target: T3, FL AREG (peptide representing uncleaved AREG) (Homo sapiens, UniProt P15514); assay: Immunoblot of TRF-conjugated AREG peptides, intact cleavage site; assay type: binding; conditions: 1 μg/mL antibody, 200 ng TRF-conjugated peptide
T3 construct: a peptide spanning this region (SMKTHSMIDSSLSKIAC); host or cells: synthetic peptide conjugated to transferrin
Procedure: as §1

cleaved AREG = target: T4, cleaved AREG (Homo sapiens, UniProt P15514); assay: Immunohistochemistry on breast tumor tissue micro-array; conditions: for proportion of tumors exhibiting medium/high intensity staining: 10 μg/mL
T4 construct: tissue US Biomax Inc; host or cells: breast disease spectrum tissue micro-array (formalin-fixed, paraffin-embedded)
T4 sequence (P15514 188-252): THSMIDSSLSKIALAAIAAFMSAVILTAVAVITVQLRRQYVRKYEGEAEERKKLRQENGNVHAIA
Procedure: A breast disease spectrum tissue micro-array was purchased from US Biomax Inc. (Derwood, MD, USA). The slides were deparaffinized in xylene and rehydrated by serial incubations in graded ethanol and then in water in a Histo-Tek® SL Slide Stainer (Sakura Finetek USA, Inc., Torrance, CA, USA). Antigen retrieval was performed in a steamer by boiling slides in a container of citrate buffer (pH 6.0) for 20 min, which was then removed for 15 min of cooling on the benchtop. Slides were washed in 1×Wash buffer (Dako Agilent, Santa Clara, CA, USA) and endogenous peroxidase was quenched by incubating with Dako Dual Endogenous Enzyme Block (S2003) for 10 min. Slides were washed in 1× Wash buffer, blocked (5% rabbit/10% goat serum in PBS), and immunostained with goat anti-AREG antibody (15 μg/mL; AF262, R&D Systems) or rabbit anti-cleaved AREG 1A3 antibody (10 μg/mL) overnight at 4° C. Slides were washed four times in 1× Wash buffer, followed by the incubation for 45 min at room temperature in 1:100 dilution of rabbit anti-goat immunoglobulins/HRP (Dako, P0160 or ready-to-use goat anti-rabbit HRP labeled polymer (Dako, K4003). The slides were washed twice in 1× Wash buffer and the color was developed with 3,3-diaminobenzidine tetrahydrochloride substrate chromogen system (K3468, DAKO, Santa Clara, CA, USA). Sections were washed with water and counterstained with hematoxylin, rinsed with water, dehydrated by serial ethanol washes to 100%, cleared and mounted in Permount (Thermo Fisher Scientific). The staining intensity was assessed semi-quantitatively using a four-point scale (negligible=0, low=1, medium=2, high=3) by two investigators working independently on blinded samples. Discordant scores were resolved by joint review.

cleaved Amphiregulin = target: T5, cleaved Amphiregulin (Homo sapiens, UniProt P15514); assay: Immunohistochemistry on multiple organ carcinoma tissue microarrays
T5 construct: tissue BioCoreUSA; host or cells: multiple organ carcinoma tissue microarrays (ten tumour types)
T5 sequence (P15514 188-252): T4 sequence (P15514 188-252)
Procedure: Two multiple organ carcinoma tissue microarrays were purchased from BioCoreUSA (Philadelphia, PA, USA). The slides were deparaffinized in xylene and rehydrated by serial incubations in graded ethanol and then in water in a Histo-Tek® SL Slide Stainer (Sakura Finetek USA, Inc., Torrance, CA, USA). Antigen retrieval was performed in a steamer by boiling slides in a container of citrate buffer (pH 6.0) for 20 min which was then removed for 15 minutes of cooling on the benchtop. Slides were washed in 1× Wash buffer (Dako Agilent, Santa Clara, CA, USA) and endogenous peroxidase was quenched by incubating with Dako Dual Endogenous Enzyme Block for 10 minutes. Slides were washed in 1× Wash buffer, blocked (5% rabbit/10% goat serum in PBS), and immunostained with goat anti-AREG antibody (15 μg/mL; AF262, R&D Systems) or rabbit anti-cleaved AREG 1A3 antibody (10 μg/mL) overnight at 4° C. Slides were washed four times in 1× Wash buffer, followed by incubation for 45 minutes at room temperature in 1:100 dilution of rabbit anti-goat immunoglobulins/HRP or ready-to-use goat antirabbit HRP labelled polymer (Dako). […] The staining intensity was assessed semi-quantitatively using a four-point scale (Negative=0, Low=1, Medium=2, High=3) by two investigators working independently on blinded samples. […]

B1: 1A3: Rabbit monoclonal IgG specific to cleaved AREG; VH SEQ ID NO: 3, VL SEQ ID NO: 4 (antibody, V domains shown)
VH: QSVKESEGRLVTPGTPLRLTCTVAGYSLSRYHMCWVRQAPGKGLEWIGMIGGSGRTDYASWAKGRFTISKTSTTVDLKITSPTTEDTATYFCSTVYTDSDGDFWGPGTLVTVSS
VL: AELDMTQTPSSKSVPVGGTVTINCQASESVYSNDRLAWFQQKPGQPPKLLIYYASTLASGVPSRFKGSGSGTQFTLTISDLECADAATYYCQSCYDMSSYGVAFGGGTELEIL
modifications: 1A3 antibody, Heavy chain; 1A3 antibody, Light chain
cleaved-AREG peptide
  binding to cleaved AREG peptide, unconjugated vs MMAE-conjugated: no substantial difference in binding
[1]
  recognition of truncated AREG peptide by immunoblot: specifically recognized
[2]
  reaction with peptide representing uncleaved AREG by immunoblot: did not react
Cleaved AREG; 138 breast cancer specimens
  cases with medium/high immunoreactivity: 70%
Cleaved AREG; ER-negative tumors (n=50)
  proportion of tumors exhibiting medium/high intensity staining: 70%
Cleaved AREG; ER-positive tumors (n=88)
  proportion of tumors exhibiting medium/high intensity staining: 69.3%
Cleaved Amphiregulin; 370 evaluable cores, ten tumor types
  neoplastic cells negative for immunostaining: No neoplastic cells were negative
Cleaved Amphiregulin; breast, prostate, liver and lung tumors
  tumors stained in the highest score for cleaved Amphiregulin: At least 50%

— patent US12043671B2, “Antibodies targeting an amphiregulin-derived cell surface neo-epitope” (Gundersen Lutheran Medical Foundation, Inc., priority 2021, dated 2024)
